The nature of data set [1]: Circular dichroism (CD) spectra and thermal transition profile. Type of data set: physicochemical. The protocol: The mathematical fitting of the CD data allowed the determination of the transition temperature (Tt) resulting from conformational change of EMP as the temperature is increased. The mathematical fitting of the CD data to the van't Hoff equation allowed the determination of the transition temperature (Tt) resulting from conformational change of EMP and EMP-scFv as the temperature is increased.
Circular dichroism (CD) spectra were recorded on a Jasco J-810 spectropolarimeter equipped with a PFD-425S Peltier temperature control unit in 0.1 cm sealed quartz cells at concentrations of 7.5 μM (EMP), 8.4 μM (scFv) and 4.1 μM (EMP-scFv) in 50 mM sodium phosphate buffer, pH 7.4. Temperature/wavelength CD-scans were performed within the temperature range from 5° C. to 35° C. with equilibration for 10 min at each temperature. Spectra were obtained from 260 to 190 nm at a resolution of 0.5 nm and at a scanning speed of 50 nm/min. The CD curves represented the average of five measurements and were smoothed using the means-movement method on the interval analysis of the spectral manager program. CD data are reported as mean residue ellipticity ([θ], deg cm^2 dmol^−1). Thermal transition curves were plotted by the mean residue ellipticity as a function of temperature for the disappearance of the random coil and the appearance of the β-turn structure.

The subject of the next data set is human platelets. Description: 96-well plate light transmission aggregometry, ADP-driven platelet aggregation. Type of data set: cell-based. As to conditions: 22° C. Here is the method:
Light transmission aggregometry was performed using a Biorad Benchmark plate reader. After incubation of human PRP with EMP-scFv (15 μg/mL), vehicle (PBS) or the GPIIb/IIIa blocker abciximab (10 μg/mL) (Reopro®, Eli Lilly, Indianapolis, U.S.A.) for 10 minutes at different temperatures, the aggregation was induced by the addition of 2 or 20 μM ADP with vigorous stirring in a 96-well plate. The absorbance was determined at 595 nm every 15 seconds for 16 minutes between vigorous shaking at 22° C. and 37° C.

The target in data set [2] is T1, GPIIb/IIIa on human platelets (Homo sapiens, UniProt P05106+P08514).
T1 construct: endogenous in cells
Description: Flow cytometry: inhibition of fibrinogen binding to human platelets. The data set is classed as cell-based. The protocol:
Human blood was collected by venipuncture with a 21-gauge butterfly needle from healthy volunteers and anticoagulated with citric acid. Platelet-rich plasma (PRP) was obtained by centrifugation (GS-6R centrifuge, Beckman Coulter) at 100×g at room temperature for 10 min.
(§1) Human PRP was diluted 1/50 in modified Tyrode's buffer containing 2 mM MgCl2 and 2 mM CaCl2. Platelets were either activated by addition of 20 μM ADP, or non activated, followed by the incubation with 15 and 50 μg/mL EMP-scFv fusion protein or EMP at 22° C., 32° C. and at 37° C. for 15 min. Mouse platelets were either pre-activated for 10 min by addition of 0.1 U/mL thrombin (Enzyme Research Laboratories), or non activated, before the incubation with 15 and 50 μg/mL of EMP-scFv fusion protein at 22° C., 32° C. or 37° C. for 15 min. In both, human and mouse samples, EMP-scFv was detected via 15 min in-dark incubation with secondary antibody (Penta-His Alexa Fluor 488, Qiagen) directed against the His(6)-tag of the single-chain antibody.
(§2) Fibrinogen binding to human activated platelets in the presence of EMP-scFv was determined with a polyclonal rabbit anti-human fibrinogen FITC-labelled antibody (DakoCytomation), while the effects of EMP-scFv on fibrinogen binding to mouse platelets were determined using FITC-conjugated rabbit anti-fibrinogen polyclonal antibody (Cemfret). Fluorescence detection was performed as described above. Samples were measured in a FACSCalibur® flow cytometer (Becton Dickinson), after fixation with 1× CellFIX® (Becton Dickinson).
In general terms: A flow cytometer gives signals particle by particle.

Data set [3] relates to jugular venous thrombosis. Description: Model of jugular venous thrombosis. Type of data set: in vivo, mouse. As to conditions: 28° C., 15 minutes after the injury, vs control group and 37° C. The protocol:
C57BL/6 mice weighing from 20-25 g were used. Care and use of laboratory animals followed the national guidelines and were approved by the institutional animal care and ethics committees. Mice were anesthetized with isoflurane, following an intra-peritoneal injection with ketamine (100 mg/kg BW) and xylazine (20 mg/kg BW). The body core temperature was monitored with a digital thermometer, and controlled at either 28° C. or 37° C. with a thermal pad (Temperature Controller TR-200, Fine Science Tools Inc.). Reducing the body temperature to 28° C. was achieved by a gradual drop, at a rate of 0.3-0.4° C./min. The mice on the thermal pad were placed under a dissecting microscope (SZ61, Olympus). An incision of the skin was made directly on the top of trachea, and vessels used for experiment were bluntly isolated from surrounding tissues. […] After rinsing with normal saline, a nano-Doppler flow probe (0.5 VB, Transonic) was then positioned over the vessel and the blood flow rate (ml/min) was measured by a transit-time perivascular flow-meter (TS420, Transonic Systems Inc.). […] Jugular vein blood flow was recorded 15 minutes after induction of injury in mice pre-treated with EMP-scFv, eptifibatide or saline. The blood flow recorded at 1 minute was considered as the initial blood flow rate. […]

In data set [4] the target is T2, GPIIb/IIIa on mouse platelets (Mus musculus, UniProt O54890+Q9QUM0).
T2 construct: endogenous in cells
Kind of data set: Flow cytometry: inhibition of fibrinogen binding to mouse platelets. The data set is classed as cell-based. The protocol: Mouse blood was collected by intracardiac puncture with a 27-gauge needle from C57BL/6 mice and anticoagulated with non-fractionated heparin (20 U/mL). A volume of 50 μl was washed with 1 mL modified Tyrode's buffer (150 mM NaCl, 2.5 mM KCl, 1.2 mM NaHCO3, 0.1% BSA, 0.1% Glucose) and centrifuged at 1200×g for 6 min. The supernatant was discarded and the pellet was resuspended in 1 mL modified Tyrode's buffer containing 2 mM MgCl2 and 2 mM CaCl2.
as §1, §2

T2 sequence (Q9QUM0 32-1033): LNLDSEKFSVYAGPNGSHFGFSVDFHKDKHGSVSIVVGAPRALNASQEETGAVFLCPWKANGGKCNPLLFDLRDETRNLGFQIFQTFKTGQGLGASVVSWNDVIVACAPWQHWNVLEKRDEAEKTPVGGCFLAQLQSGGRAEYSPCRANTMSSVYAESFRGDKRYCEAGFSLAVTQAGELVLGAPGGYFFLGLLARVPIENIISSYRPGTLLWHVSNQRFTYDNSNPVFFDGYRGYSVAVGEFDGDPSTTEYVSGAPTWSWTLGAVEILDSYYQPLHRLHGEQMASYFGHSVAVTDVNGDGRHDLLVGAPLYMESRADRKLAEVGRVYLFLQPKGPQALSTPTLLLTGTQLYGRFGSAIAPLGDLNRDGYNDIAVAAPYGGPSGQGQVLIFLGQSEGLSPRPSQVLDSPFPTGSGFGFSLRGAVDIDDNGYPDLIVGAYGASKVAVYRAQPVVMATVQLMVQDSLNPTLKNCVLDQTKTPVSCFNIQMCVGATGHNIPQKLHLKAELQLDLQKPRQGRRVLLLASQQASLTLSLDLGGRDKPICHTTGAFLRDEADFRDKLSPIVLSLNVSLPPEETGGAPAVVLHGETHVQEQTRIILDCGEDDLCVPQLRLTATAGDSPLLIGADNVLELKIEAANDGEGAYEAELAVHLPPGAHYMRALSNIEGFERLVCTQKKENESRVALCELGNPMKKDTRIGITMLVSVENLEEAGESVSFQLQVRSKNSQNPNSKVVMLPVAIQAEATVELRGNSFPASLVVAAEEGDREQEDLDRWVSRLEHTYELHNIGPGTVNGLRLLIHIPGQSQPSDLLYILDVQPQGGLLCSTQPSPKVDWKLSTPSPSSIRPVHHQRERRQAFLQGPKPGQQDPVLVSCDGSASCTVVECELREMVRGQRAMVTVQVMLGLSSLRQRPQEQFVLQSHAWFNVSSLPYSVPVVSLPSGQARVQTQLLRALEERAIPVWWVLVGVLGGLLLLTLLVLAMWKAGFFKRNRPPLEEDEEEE
T2 sequence (O54890 26-787): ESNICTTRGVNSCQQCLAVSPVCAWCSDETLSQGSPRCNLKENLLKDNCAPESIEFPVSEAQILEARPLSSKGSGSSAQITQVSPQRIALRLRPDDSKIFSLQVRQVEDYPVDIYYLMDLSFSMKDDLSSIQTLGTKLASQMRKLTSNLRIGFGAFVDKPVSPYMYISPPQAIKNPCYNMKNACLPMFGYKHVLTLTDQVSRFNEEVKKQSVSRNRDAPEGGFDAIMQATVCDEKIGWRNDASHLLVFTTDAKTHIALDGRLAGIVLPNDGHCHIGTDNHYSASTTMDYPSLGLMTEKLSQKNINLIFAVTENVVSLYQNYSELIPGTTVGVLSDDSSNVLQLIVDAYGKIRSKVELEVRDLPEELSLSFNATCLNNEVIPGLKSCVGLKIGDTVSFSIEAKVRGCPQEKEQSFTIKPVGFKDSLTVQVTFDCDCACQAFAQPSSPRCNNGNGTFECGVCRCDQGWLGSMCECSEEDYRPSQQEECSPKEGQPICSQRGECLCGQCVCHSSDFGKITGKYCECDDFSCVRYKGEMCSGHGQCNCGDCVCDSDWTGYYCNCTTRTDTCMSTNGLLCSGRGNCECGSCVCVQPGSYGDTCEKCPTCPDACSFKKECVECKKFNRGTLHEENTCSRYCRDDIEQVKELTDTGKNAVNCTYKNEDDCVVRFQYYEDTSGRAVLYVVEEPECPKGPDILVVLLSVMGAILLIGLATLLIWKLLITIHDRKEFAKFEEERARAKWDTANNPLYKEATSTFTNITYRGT

B1: EMP-scFv: fusion of elastin mimetic polypeptide (EMP) and activation-specific GPIIb/IIIa-blocking single-chain antibody; 704 amino acids, approximately 70 kDa (protein)
chain: MAVPAVGIPAVGIPAVGIPAVGIPAVGIPAVGIPAVGIPAVGIPAVGIPAVGIPAVGIPAVGIPAVGIPAVGIPAVGIPAVGIPAVGIPAVGIPAVGIPAVGIPAVGIPAVGIPAVGIPAVGIPAVGIPAVGIPAVGIPAVGIPAVGIPAVGIPAVGIPAVGIPAVGIPAVGIPAVGIPAVGIPAVGIPAVGIPAVGIPAVGIPAVGIPAVGIPAVGIPAVGIPAVGIPAVGIPAVGIPAVGIPAVGIPAVGIPAVGIPAVGIPAVGIPAVGIPAVGIPAVGIPAVGIPAVGIPAVGIPAVGIPAVGIPAVGIPAVGIPAVGIPAVGIPAVGIPAVGIPAVGIPAVGIPAVGIPAVGIPAVGIPAVGIPAVGIPAVGIPAVGIPAVGIPAVGIPAVGIPAVGIPGGGGSMMAEVQLVESGGGLVQPGGSLRLSCAASGFMFSRYAMSWVRQAPGKGPEWVSGISGSGGSTYYADSVKGRFTVSRDNSKNTLYLQMNSLRAEDTAVYYCARIFTHRSRGDVPDQTSFDYWGQGTLVTVSSGSASAPKLEEGEFSEARVSSELTQDPAVSVALGQTVRITCQGDSLRNFYASWYQQKPGQAPTLVIYGLSKRPSGIPDRFSASSSGNTASLTITGAQAEDEADYYCLLYYGGGQQGVFGGGTKLTVLRQPKAAPSVTLFPPSSAAAGSEQKLISEEDLNSHHHHHH
As for B1, in data set [1] (CD data at 200 nm), the “transition temperature (Tt), disappearance of the random coil” value was 15 °C. The “transition temperature (Tt), appearance of the β-turn structure” value in data set [1] (CD data at 215 nm) came out at 28 °C. Also, in data set [1] (thermal transition curve), the “temperature at which structural change and hydrophobic collapse were completed” value was “higher than 35 °C”. The ADP-driven platelet aggregation entry in the data set on human platelets is reported as “effective inhibition”. Also, the “fibrinogen binding to human activated platelets” value in data set [2] (22° C., concentration-dependent) is “significantly reduced”; in data set [2] (32° C.), “inhibit the binding of fibrinogen”; in data set [2] (37° C.) it was “not inhibited”. Besides, the “percentage of initial blood flow” value in data set [3] is on record as “significantly higher levels of blood flow”. The figures for the “fibrinogen binding to activated mouse platelets” value in data set [4] (22° C.), in data set [4] (32° C.) and in data set [4] (37° C.) were “significant decrease”, “inhibit the binding of fibrinogen” and “did not affect”, respectively.

Source of the values: US9035028B2, “Temperature sensitive conjugate compositions” (Emory University, priority 2010, dated 2015).
